US20020025558A1

Molecular target: human MADr3 (human)
Assay: cell-based or functional assay

TGF-β receptor
signal to noise ratio of 33P phosphorylation at 0.01 units of TGF-β receptor, MADr3 coated at 750 ng/well: 50
signal to noise ratio of 33P phosphorylation on MADr3-coated FlashPlate: > 10
